Laboratory results reported in US20250320281A1.

What was measured:
[1] = biological target: WT JR-FL gp120 (HIV-1); experiment: ELISA, antigen-coated wells
[2] = biological target: HIV-1 Env of pseudovirus isolate MGRM-G-014 (HIV-1); experiment: cell-based or functional assay
[3] = biological target: HIV-1 92UG005 Env (pseudovirus) (HIV-1); experiment: cell-based or functional assay
[4] = biological target: HIV-1 CMU02 Env (pseudovirus) (HIV-1); experiment: cell-based or functional assay
[5] = biological target: envelope of aMLV pseudovirus (negative control); experiment: cell-based or functional assay
[6] = biological target: HIV-1 Env of pseudovirus isolate MGRM-G-006 (HIV-1); experiment: cell-based or functional assay
[7] = biological target: HIV-1 Env of pseudovirus isolate MGRM-G-004 (HIV-1); experiment: cell-based or functional assay
[8] = biological target: HIV-1 93IN905 Env (pseudovirus) (HIV-1); experiment: cell-based or functional assay
[9] = biological target: HIV-1 Env of pseudovirus isolate MGRM-G-001 (HIV-1); experiment: cell-based or functional assay
[10] = biological target: HIV-1 MGRM-C-027 Env (pseudovirus) (HIV-1); experiment: cell-based or functional assay
[11] = biological target: HIV-1 92RW020 Env (pseudovirus) (HIV-1); experiment: cell-based or functional assay
[12] = biological target: HIV-1 Env of pseudovirus isolate MGRM-G-017 (HIV-1); experiment: cell-based or functional assay
[13] = biological target: HIV-1 Env of pseudovirus isolate MGRM-G-015 (HIV-1); experiment: cell-based or functional assay
[14] = biological target: HIV-1 MGRM-C-026 Env (pseudovirus) (HIV-1); experiment: cell-based or functional assay
[15] = biological target: HIV-1 JRCSF Env (pseudovirus) (HIV-1) (UniProt P20871); experiment: cell-based or functional assay
[16] = biological target: HIV-1 NL43 Env (pseudovirus) (HIV-1); experiment: cell-based or functional assay
[17] = biological target: HIV-1 94UG103 Env (pseudovirus) (HIV-1); experiment: cell-based or functional assay
[18] = biological target: HIV-1 92UG024 Env (pseudovirus) (HIV-1); experiment: cell-based or functional assay
[19] = biological target: HIV-1 Env of pseudovirus isolate MGRM-G-013 (HIV-1); experiment: cell-based or functional assay
[20] = biological target: HIV-1 APV6 Env (pseudovirus) (HIV-1); experiment: cell-based or functional assay
[21] = biological target: HIV-1 92TH021 Env (pseudovirus) (HIV-1); experiment: cell-based or functional assay
[22] = biological target: HIV-1 Env of pseudovirus isolate MGRM-G-019 (HIV-1); experiment: cell-based or functional assay
[23] = biological target: HIV-1 Env of pseudovirus isolate MGRM-G-009 (HIV-1); experiment: cell-based or functional assay
[24] = biological target: HIV-1 MGRM-A-010 Env (pseudovirus) (HIV-1); experiment: cell-based or functional assay
[25] = biological target: HIV-1 MGRM-C-028 Env (pseudovirus) (HIV-1); experiment: cell-based or functional assay
[26] = biological target: HIV-1 Env of pseudovirus isolate MGRM-G-011 (HIV-1); experiment: cell-based or functional assay
[27] = biological target: HIV-1 MGRM-D-018 Env (pseudovirus) (HIV-1); experiment: cell-based or functional assay
[28] = biological target: HIV-1 Env of pseudovirus isolate MGRM-G-016 (HIV-1); experiment: cell-based or functional assay
[29] = biological target: HIV-1 Env of pseudovirus isolate MGRM-G-027 (HIV-1); experiment: cell-based or functional assay

5329_C19 (PGT-136) (antibody), sequence (VH): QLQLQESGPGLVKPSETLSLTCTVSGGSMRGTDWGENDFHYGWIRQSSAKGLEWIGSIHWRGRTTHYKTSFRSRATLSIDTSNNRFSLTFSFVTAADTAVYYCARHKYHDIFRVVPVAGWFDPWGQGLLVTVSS
5329_C19 (PGT-136) (antibody), sequence (VL): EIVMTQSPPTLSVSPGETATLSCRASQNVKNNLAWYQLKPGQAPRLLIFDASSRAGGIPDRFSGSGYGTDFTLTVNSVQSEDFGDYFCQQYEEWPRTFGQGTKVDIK

Substance | EC50 [1] [µg/mL] | IC50 (µg/mL), pseudovirus neutralization [2] [µg/mL] | IC50 (neutralizing activity, pseudovirus) [3] [µg/mL] | IC50 (neutralizing activity, pseudovirus) [4] [µg/mL] | IC50 (µg/mL), pseudovirus neutralization [5] [µg/mL] | IC50 (µg/mL), pseudovirus neutralization [6] [µg/mL] | IC50 (µg/mL), pseudovirus neutralization [7] [µg/mL] | IC50 (neutralizing activity, pseudovirus) [8] [µg/mL] | IC50 (µg/mL), pseudovirus neutralization [9] [µg/mL] | IC50 (neutralizing activity, pseudovirus) [10] [µg/mL] | neutralization IC50 (pseudovirus) [11] [µg/mL] | IC50 (µg/mL), pseudovirus neutralization [12] [µg/mL] | IC50 (µg/mL), pseudovirus neutralization [13] [µg/mL] | IC50 (neutralizing activity, pseudovirus) [14] [µg/mL] | IC50 (neutralizing activity, pseudovirus) [15] [µg/mL] | IC50 (neutralizing activity, pseudovirus) [16] [µg/mL] | IC50 (neutralizing activity, pseudovirus) [17] [µg/mL] | IC50 (neutralizing activity, pseudovirus) [18] [µg/mL] | IC50 (µg/mL), pseudovirus neutralization [19] [µg/mL] | IC50 (neutralizing activity, pseudovirus) [20] [µg/mL] | further results
5329_C19 (PGT-136) (antibody) | 0.2 | > 50 | > 10 | > 10 | > 50 | > 50 | > 50 | 0.0135 | 8.11 | > 10 | 0.738 | > 50 | > 50 | 0.0065 | > 10 | > 10 | > 10 | 0.0915 | > 50 | > 10 | IC50 (neutralizing activity, pseudovirus) [21]: > 10 µg/mL; IC50 (µg/mL), pseudovirus neutralization [22]: 44.3 µg/mL; IC50 (µg/mL), pseudovirus neutralization [23]: > 50 µg/mL; IC50 (neutralizing activity, pseudovirus) [24]: > 10 µg/mL; IC50 (neutralizing activity, pseudovirus) [25]: > 10 µg/mL; IC50 (µg/mL), pseudovirus neutralization [26]: > 50 µg/mL; IC50 (neutralizing activity, pseudovirus) [27]: > 10 µg/mL; IC50 (µg/mL), pseudovirus neutralization [28]: > 50 µg/mL; IC50 (µg/mL), pseudovirus neutralization [29]: 45.2 µg/mL
5343_B08 (PGT-135) (antibody) | 0.1 | > 50 | > 10 | > 10 | > 50 | > 50 | > 50 | 0.0183 | 0.393 | > 10 | 0.157 | 0.137 | > 50 | 0.0123 | 0.113 | 6.79 | > 10 | 0.0139 | > 50 | > 10 | IC50 (neutralizing activity, pseudovirus) [21]: > 10 µg/mL; IC50 (µg/mL), pseudovirus neutralization [22]: 0.145 µg/mL; IC50 (µg/mL), pseudovirus neutralization [23]: > 50 µg/mL; IC50 (neutralizing activity, pseudovirus) [24]: > 10 µg/mL; IC50 (neutralizing activity, pseudovirus) [25]: 2.16 µg/mL; IC50 (µg/mL), pseudovirus neutralization [26]: > 50 µg/mL; IC50 (neutralizing activity, pseudovirus) [27]: 0.0433 µg/mL; IC50 (µg/mL), pseudovirus neutralization [28]: > 50 µg/mL; IC50 (µg/mL), pseudovirus neutralization [29]: 0.062 µg/mL
